How the values were obtained:
[1] = tested on: Human pluripotency stem cells; assay: Mesoderm vs. endoderm induction in human pluripotent stem cell spheroids (FOXA2/HAND1 staining, first three days); format: cell-based
Method: To recapitulate the gut tube organogenesis in vitro, a 3D suspension culture system to differentiate endoderm and mesoderm concomitantly from human iPSCs was established. By fine-tuning the dosage and timing of Wnt, Nodal (or TGF-b), and BMP activation, mesendoderm spheroids containing both definitive endodermal (DE, FOXA2+) and lateral plate mesoderm (LPM, HAND1+) populations were generated (FIG. 2A). It was also determined that ˜28 hours of the Wnt activation was a good duration for generating appropriate amounts of both DE and LPM populations from the iPSCs (approximately 1:1) (FIG. 2B). LPM derived splanchnic mesoderm (SM, FOXF1+) further gives rise to the mesenchyme surrounding the primitive gut tube. The SM will then differentiate into the connective tissue, smooth muscle cells (SMCs), and blood vessels of the endodermal organs.
• a) At Day −1, dissociate human iPSCs or human ESCs into single cells. • b) Using an Aggrewell plate (StemCell), or other compatible cell collection plate, generate spheroids of the pluripotent cells. Note: the number of cells in each microwell should be between 500-2000 cells. Accordingly, the spheroid diameter range should be from 50-200 μm. • c) Culture the cells in steady condition (37° C. cell incubator) overnight. Note: usually, the spheroid will form at day 0. […]

mesendoderm spheroids = conditions: 50 ng/mL, day 3 to day 7 (FIG. 3C)
Description: To form various organs properly, the endoderm transforms into a primitive gut tube and is then regionalized along the dorsal-ventral (D-V) and anterior-posterior (A-P) axis into foregut, midgut, and hindgut under the control of various signaling pathways: BMP and TGF-b inhibition facilitate foregut formation, while Wnt and FGF activation facilitate mid/hindgut development.

Embryoid bodies (EBs) = assay: Single-cell RNA-seq of Day 3 meso/endoderm organoids; format: cell-based, human; conditions: accumulated stimulation (0, 1, 2, and 3 days), scRNA-seq at day 3 (FIG. 16E)
Description: Embryoid bodies (EBs) receiving various duration of BMP4 stimulation (0, 1, 2, and 3 days) were subjected to single-cell RNA-seq at day 3 (FIG. 16A). They contained both mesoderm and endoderm populations. FIG. 16B depicts a feature plot of cell distributions under different BMP4 treatment durations. FIG. 16C depicts clustering of d3 meso/endoderm based on marker genes. FIG. 16D depicts a reference map comparison of d3 meso/endoderm to CS7 gastrulation human embryo AM: Advanced mesoderm; EM: Emergent mesoderm; PS: Primitive Streak. FIG. 16E depicts a cluster projection of day 3 meso/endoderm organoids to mouse early gastrulation embryos. i. UMAP of mouse E6.5˜E8.5 embryos. ii. Reverse projection of day 3 organoids to mouse embryos map.

[2] = tested on: human vascularized gut tube organoids; assay: Single-cell RNA-seq of Day 7 vascularized foregut and mid/hindgut organoids, reverse projection to mouse E8.75 gut tube atlas; format: cell-based
Description: FIG. 17A depicts representative UMAP projection of foregut organoid (1-day treatment of BMP4 from day 1-3) and mid/hindgut organoid (3-days treatment of BMP4 from day 1-3). FIG. 17B-D depict reverse projection of human vascularized gut tube organoids to mouse E8.75 gut tube atlas. FIG. 17B depicts mouse E8.75 embryonic gut tube containing both anterior (A) and posterior (P) portion. Gut tube (endoderm), mesenchyme, and endothelium populations are segregated into A-P subclusters. FIG. 17C depicts Day 7 foregut organoid reverse projection to mouse E8.75 gut tube. […] FIG. 17D depicts Day 7 mid/hindgut organoid reverse projection to mouse E8.75 tube.

Molecule: Cc1c[nH]c(-c2cnc(NCCNc3ccc(C#N)cn3)nc2-c2ccc(Cl)cc2Cl)n1 [CHIR99201, reference compound]
- mesoderm/endoderm ratio ([1]; Activation of Wnt under different durations, first three days (FIG. 14A)): drastically changed mesoderm/endoderm ratio

Molecule: VEGF
- vascular network (CD31+) surrounding the FOXA2+ epithelial layer (mesendoderm spheroids): a significant amount of a vascular network (CD31+)

B1: BMP4: BMP pathway activator, BMP protein (protein, UniProt P12644 293-408, looked up)
Bone morphogenetic protein 4: SPKHHSQRARKKNKNCRRHSLYVDFSDVGWNDWIVAPPGYQAFYCHGDCPFPLADHLNSTNHAIVQTLVNSVNSSIPKACCVPTELSAISMLYLDEYDKVVLKNYQEMVVEGCGCR
- mesoderm/endoderm ratio ([1]; Prolonged treatment (FIG. 14B)): increased mesoderm/endoderm ratio
- mesenchymal population (Embryoid bodies (EBs)): augmented mesenchymal population
- neural lineage (Embryoid bodies (EBs)): reduced neural lineage
- anterior gut tube endoderm and endothelium populations ([2]; Day 7 foregut organoid, one-day treatment compared to no BMP4 (FIG. 17C)): generated purer anterior gut tube endoderm and more anterior endothelium
- posterior gut tube endoderm, mesenchyme, and endothelium populations ([2]; Day 7 mid/hindgut organoid, longer treatment during the first three-day differentiation (FIG. 17D)): induced more posterior gut tube endoderm, mesenchyme, and endothelium

From patent US20240318146A1, “VASCULARIZED ORGANOIDS” (CHILDREN’S HOSPITAL MEDICAL CENTER, priority 2021, published 2024)
